In general, EC50 refers to the concentration at which the effect is half-maximal. The low end stands for an effect from little substance, the high end for a need for much substance. As a reminder, the Kd is the concentration at which binding is half-saturated.

Drawing on patent US20250145711A1 (Janssen / Centocor, published 2025), this text covers EC50 and Kd for 2 molecules.

In assay [1] the target is T1, human PSMA on prostate cancer cell lines (22RV1, C4-2B) (human, UniProt Q04609 1-750).
T1 construct: also called PSMA-expressing cell lines
Kind of assay: flow cytometry on 22RV1 cells. The protocol:
(§1) 22RV1 and C4-2B cells were plated at 50,000 cells per well in 50 μl of assay medium (RPMI, 10% HI FBS) in V bottom plates. Serial dilutions of antibodies were prepared in assay medium with 50 μl of antibody dilutions added to the plates containing cells. The plates were incubated for 60 min at 37° C. at which time 100 μl of staining buffer (Becton Dickinson Cat #554657) was added to all wells of each plate. The plates were centrifuged at 300×G for 5 minutes and the medium was removed from the wells. 200 μl of staining buffer was added to all wells of each plate. The plates were centrifuged at 300× G for 5 minutes and the medium was removed from the wells. 50 μl of 2 μg/ml AlexaFluor647-labeled goat anti-human Fc was added to all wells of the plates and the plates were incubated for 30 minutes at 4° C. 150 μl of staining buffer was added to all wells of each plate. The plates were centrifuged at 300× G for 5 minutes and the medium was removed from the wells.

The target in assay [2] is T1, human PSMA on prostate cancer cell …. The assay is described as follows: flow cytometry on C4-2B cells. The protocol: as §1
A general note: Flow cytometry measures light scatter and fluorescence of single cells or particles in a stream.

The target of the next assay is T2, recombinant human PSMA (human, UniProt Q04609 44-750).
T2 construct: also called hu PSMA; prostate-specific membrane antigen
Kind of assay: SPR (Biacore 8K), antibody captured on anti-Fc, PSMA in solution. The protocol:
The binding affinity of anti-PSMA to the recombinant human, cynomolgus or mouse PSMA was determined by surface plasmon resonance (SPR) using a Biacore 8K instrument\. […] The association and dissociation were monitored for 3 and 15 minutes, respectively, using a flow rate of 50 μL/min. Raw binding data was referenced by subtracting the analyte binding signals from blanks and analyzed using a 1:1 Langmuir binding model using the Biacore Insight evaluation software to obtain the kinetics which were used to calculate the binding affinity. The anti-PSMA were captured using an anti-human Fc antibody and the antigens were injected in solution.
In general terms: SPR reads the build-up and loss of mass on a sensor chip optically.

T1 sequence (Q04609 whole entry): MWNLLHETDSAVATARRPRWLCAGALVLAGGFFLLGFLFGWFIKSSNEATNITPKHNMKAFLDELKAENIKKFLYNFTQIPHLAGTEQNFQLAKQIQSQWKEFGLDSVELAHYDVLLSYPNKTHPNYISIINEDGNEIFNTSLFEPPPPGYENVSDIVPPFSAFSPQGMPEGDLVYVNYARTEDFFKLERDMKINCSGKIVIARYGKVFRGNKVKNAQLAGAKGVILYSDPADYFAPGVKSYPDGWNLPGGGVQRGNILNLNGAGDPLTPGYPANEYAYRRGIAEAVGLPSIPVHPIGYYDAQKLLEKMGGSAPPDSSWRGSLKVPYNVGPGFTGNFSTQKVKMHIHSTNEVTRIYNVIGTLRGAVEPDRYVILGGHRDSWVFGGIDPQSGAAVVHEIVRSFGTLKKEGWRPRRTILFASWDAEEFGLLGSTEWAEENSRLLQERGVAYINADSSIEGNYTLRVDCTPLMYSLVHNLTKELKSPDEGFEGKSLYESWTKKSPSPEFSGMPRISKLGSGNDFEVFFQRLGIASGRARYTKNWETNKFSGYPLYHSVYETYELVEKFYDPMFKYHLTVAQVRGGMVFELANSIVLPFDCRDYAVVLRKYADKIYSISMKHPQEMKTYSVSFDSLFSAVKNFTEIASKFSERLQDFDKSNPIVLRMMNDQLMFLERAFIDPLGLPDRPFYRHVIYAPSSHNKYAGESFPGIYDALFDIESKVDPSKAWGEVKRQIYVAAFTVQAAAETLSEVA
T2 sequence (Q04609 44-750 limits assumed): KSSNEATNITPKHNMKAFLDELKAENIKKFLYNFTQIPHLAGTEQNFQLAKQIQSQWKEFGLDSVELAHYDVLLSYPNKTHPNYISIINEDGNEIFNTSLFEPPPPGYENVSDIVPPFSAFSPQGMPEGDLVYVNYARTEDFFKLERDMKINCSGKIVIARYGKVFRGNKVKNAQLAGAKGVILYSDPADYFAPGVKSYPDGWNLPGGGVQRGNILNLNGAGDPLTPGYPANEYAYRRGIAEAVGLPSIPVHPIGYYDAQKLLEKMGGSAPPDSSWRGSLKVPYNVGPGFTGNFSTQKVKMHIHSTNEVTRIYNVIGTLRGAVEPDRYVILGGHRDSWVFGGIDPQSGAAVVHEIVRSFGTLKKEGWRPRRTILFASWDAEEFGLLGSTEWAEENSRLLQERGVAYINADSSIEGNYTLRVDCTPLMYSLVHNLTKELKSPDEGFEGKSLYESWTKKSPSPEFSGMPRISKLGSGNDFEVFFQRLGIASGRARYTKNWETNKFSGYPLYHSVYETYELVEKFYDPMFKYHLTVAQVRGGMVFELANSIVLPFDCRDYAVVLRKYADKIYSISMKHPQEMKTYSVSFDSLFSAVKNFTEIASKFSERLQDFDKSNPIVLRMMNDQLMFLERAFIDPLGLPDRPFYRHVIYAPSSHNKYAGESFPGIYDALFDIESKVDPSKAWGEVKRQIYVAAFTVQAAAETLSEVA

B1: PS3B931 (bispecific antibody, human IgG1, kappa, lambda, L234A L235A)
heavy 1: EVQLVESGGGLVKPGGSLRLSCAASGFTFSRYNMNWVRQAPGKGLEWVSSISTSSNYIYYADSVKGRFTFSRDNAKNSLDLQMSGLRAEDTAIYYCTRGWGPFDYWGQGTLVTVSSASTKGPSVFPLAPSSKSTSGGTAALGCLVKDYFPEPVTVSWNSGALTSGVHTFPAVLQSSGLYSLSSVVTVPSSSLGTQTYICNVNHKPSNTKVDKKVEPKSCDKTHTCPPCPAPEAAGGPSVFLFPPKPKDTLMISRTPEVTCVVVSVSHEDPEVKFNWYVDGVEVHNAKTKPREEQYNSTYRVVSVLTVLHQDWLNGKEYKCKVSNKALPAPIEKTISKAKGQPREPQVYTLPPSREEMTKNQVSLTCLVKGFYPSDIAVEWESNGQPENNYKTTPPVLDSDGSFLLYSKLTVDKSRWQQGNVFSCSVMHEALHNHYTQKSLSLSP
light 1: DIQMTQSPSSLSASVGDRVTITCRARQSIGTAIHWYQQKPGKAPKLLIKYASESISGVPSRFSGSGSGTDFTLTISSLQPEDFATYYCQQSGSWPYTFGQGTKLEIKRTVAAPSVFIFPPSDEQLKSGTASVVCLLNNFYPREAKVQWKVDNALQSGNSQESVTEQDSKDSTYSLSSTLTLSKADYEKHKVYACEVTHQGLSSPVTKSFNRGEC
heavy 2: EVQLVESGGGLVKPGGSLRLSCAASGFTFSRYNMNWVRQAPGKGLEWVSSINSNSRYIYYADSVKGRFTISRDSAKNSLYLQMNSLRAEDTAVYYCAKTMGDYYYYYGMDVWGQGTTVTVSSASTKGPSVFPLAPSSKSTSGGTAALGCLVKDYFPEPVTVSWNSGALTSGVHTFPAVLQSSGLYSLSSVVTVPSSSLGTQTYICNVNHKPSNTKVDKKVEPKSCDKTHTCPPCPAPEAAGGPSVFLFPPKPKDTLMISRTPEVTCVVVSVSHEDPEVKFNWYVDGVEVHNAKTKPREEQYNSTYRVVSVLTVLHQDWLNGKEYKCKVSNKALPAPIEKTISKAKGQPREPQVYTLPPSREEMTKNQVSLTCLVKGFYPSDIAVEWESNGQPENNYKTTPPVLDSDGSFFLYSRLTVDKSRWQQGNVFSCSVMHEALHNHYTQKSLSLSPG
light 2: SSELTQPPSVSGAPGQRVTISCAGSLSNIGAGYDVHWYQQLPGTAPKLLIYGNINRLSGVPERFSGSKSGTSASLAITGLQAEDGADYYCQSYDSSLSSYVFGTGTKVTVLGQPKAAPSVTLFPPSSEELQANKATLVCLISDFYPGAVTVAWKADSSPVKAGVETTTPSKQSNNKYAASSYLSLTPEQWKSHRSYSCQVTHEGSTVEKTVAPTECS
notes: FAB-A: CD3B2183 (CD3W245); FAB-B: PSMB890
As for B1, the EC50 in assay [1] and in assay [2] was 60 nM in each case.

B2: PS3B913 (bispecific antibody, human IgG1, lambda, L234A L235A)
heavy 1: QVQLQQSGPRLVRPSQTLSLTCAISGDSVFNNNAAWSWIRQSPSRGLEWLGRTYYRSKWLYDYAVSVKSRITVNPDTSRNQFTLQLNSVTPEDTALYYCARGYSSSFDYWGQGTLVTVSSASTKGPSVFPLAPSSKSTSGGTAALGCLVKDYFPEPVTVSWNSGALTSGVHTFPAVLQSSGLYSLSSVVTVPSSSLGTQTYICNVNHKPSNTKVDKKVEPKSCDKTHTCPPCPAPEAAGGPSVFLFPPKPKDTLMISRTPEVTCVVVSVSHEDPEVKFNWYVDGVEVHNAKTKPREEQYNSTYRVVSVLTVLHQDWLNGKEYKCKVSNKALPAPIEKTISKAKGQPREPQVYTLPPSREEMTKNQVSLTCLVKGFYPSDIAVEWESNGQPENNYKTTPPVLDSDGSFLLYSKLTVDKSRWQQGNVFSCSVMHEALHNHYTQKSLSLSPG
light 1: QSALTQPASVSGSPGQSITISCTGTSSNIGTYKFVSWYQQHPDKAPKVLLYEVSKRPSGVSSRFSGSKSGNTASLTISGLQAEDQADYHCVSYAGSGTLLFGGGTKLTVLGQPKAAPSVTLFPPSSEELQANKATLVCLISDFYPGAVTVAWKADSSPVKAGVETTTPSKQSNNKYAASSYLSLTPEQWKSHRSYSCQVTHEGSTVEKTVAPTECS
heavy 2: not shown
light 2: not shown
notes: FAB-A: CD3B891 (CD3B376 - K477); FAB-B: PSMB891
As to B2, the equilibrium dissociation constant (Kd) with recombinant human PSMA is at most 0.24 nM. Further, the concentration for a half-maximal effect (EC50) in assay [1] came out at 3.42 nM; in assay [2], 4.56 nM.
